First the molecules themselves.
T1: Peptide 4: Biotin-AGGGGSGGGGSGGGGSAAA-Tyr-acid (N-terminal biotin; C-terminal acid)
T1 construct: control peptide without PC
T1 peptide: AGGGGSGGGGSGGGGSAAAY

T2: Peptide 8: Biotin-AEAAAKEAAAKEAAAKEAAAKAAA-Tyr-acid (N-terminal biotin; C-terminal acid)
T2 construct: control peptide without PC
T2 peptide: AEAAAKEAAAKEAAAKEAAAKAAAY

B1: PcOxP_DB02_C09 (scFv, V domains shown)
VH: EVQLLESGGGLVQPGGSLRLSCAASGFTFSDAYMEWVRQAPGKGLEWVAASRNKANDYTTEYADSVKGRFTISRDNSKNTLYLQMNSLRAEDTAVYYCARDYYGSSYWYFDVWGQGTLVTVSS
VL: DIQMTQSPSSLSASVGDRVTITCTASESLYSSKHKVHYLAWYQQKPGKAPKLLIYGAGNRYIGVPSRFSGSGSGTDFTLTISSLQPEDFATYYCAQFYFYPLTFGGGTKVEIK
notes: scFv in periplasmic extract
B2: PcOxP_DB02_C11 (scFv, V domains shown)
VH: B1 VH with F29S, A32F, T59Y
VL: B1 VL with G58S, F99S
notes: scFv in periplasmic extract
B3: PcOxP_DB02_D10 (scFv, V domains shown)
VH: B1 VH with A32Q
VL: B1 VL with S26T, G58S, I62T, F99S
notes: scFv in periplasmic extract
B4: PcOxP_DB02_D01 (scFv, V domains shown)
VH: B1 VH with T28G, A32F, N53H
VL: B1 VL with G58S, F99W
notes: scFv in periplasmic extract
B5: PcOxP_DB02_F12 (scFv, V domains shown)
VH: B1 VH
VL: B1 VL with T24E, G58S, I62P, F99E
notes: scFv in periplasmic extract
B6: PcOxP_DB02_E10 (scFv, V domains shown)
VH: B1 VH with A32Q, T59Q
VL: B1 VL with S32G, G58S, R60L, Y61Q, F99Y
notes: scFv in periplasmic extract
B7: PcOxP_DB02_E01 (scFv, V domains shown)
VH: B1 VH with A32Q
VL: B1 VL with G58S, N59G, F99S
notes: scFv in periplasmic extract
B8: PcOxP_DB02_F07 (scFv, V domains shown)
VH: B1 VH with T28W, A32F
VL: B1 VL with E27Q, H34N, A57E, G58S, F99S
notes: scFv in periplasmic extract
B9: PcOxP_DB02_D09 (scFv, V domains shown)
VH: B1 VH with D31T, A32F
VL: B1 VL with G58S, I62G, F99E
notes: scFv in periplasmic extract
B10: PcOxP_DB02_F02 (scFv, V domains shown)
VH: B1 VH with A32F
VL: B1 VL with T24F, G58S, Y61G, F99S
notes: scFv in periplasmic extract

Changes are numbered by the printed parent chain.

For one assay, the target named is BSA (UniProt P02769). In words: scFv ELISA.
Sequence of BSA (P02769 25-607 limits assumed): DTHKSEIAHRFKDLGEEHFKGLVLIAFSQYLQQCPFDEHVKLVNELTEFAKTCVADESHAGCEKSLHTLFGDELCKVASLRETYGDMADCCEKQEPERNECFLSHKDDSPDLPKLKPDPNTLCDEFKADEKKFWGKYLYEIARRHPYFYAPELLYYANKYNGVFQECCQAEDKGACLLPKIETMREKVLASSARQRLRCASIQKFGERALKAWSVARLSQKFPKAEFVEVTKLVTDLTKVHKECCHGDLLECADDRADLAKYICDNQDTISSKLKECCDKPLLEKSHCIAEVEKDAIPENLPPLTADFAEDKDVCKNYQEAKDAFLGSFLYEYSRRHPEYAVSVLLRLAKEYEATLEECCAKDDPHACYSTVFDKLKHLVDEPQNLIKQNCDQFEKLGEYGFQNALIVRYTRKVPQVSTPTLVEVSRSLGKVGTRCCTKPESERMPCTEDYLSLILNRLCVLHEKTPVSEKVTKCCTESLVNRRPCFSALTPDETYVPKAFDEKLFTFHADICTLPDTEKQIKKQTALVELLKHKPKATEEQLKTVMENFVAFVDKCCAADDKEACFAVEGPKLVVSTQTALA
B1 yielded an OD450 of 0.1 OD450.
In the case of B2, the OD450 was determined as 0.1 OD450.
In turn, B3 returned an OD450 of 0.1 OD450.
For the molecule B4, the OD450 came out at 0.09 OD450.
Molecule B5 had an OD450 of 0.07 OD450.
The same measure, in the same setting: to B6 belongs 0.09 OD450; to B7, 0.11 OD450.
Turning to B8, the OD450 was 0.1 OD450.
The molecule B9 yielded an OD450 of 0.11 OD450.
Regarding B10, the OD450 is 0.11 OD450.

A further assay concerns the target Peptide 5: Biotin-…-[Tyr(PC)]-acid. Kind of assay: scFv ELISA. A general note: An ELISA detects its analyte on a solid surface through an enzyme-linked reagent.
B1 had an OD450 of 1.01 OD450.
As for B2, the OD450 was found to be 0.24 OD450.
Turning to B3, the OD450 was determined as 1.01 OD450.
The molecule B4 registered an OD450 of 0.35 OD450.
The molecule B5 came in with an OD450 of 0.81 OD450.
In turn, B6 displayed an OD450 of 0.79 OD450.
Turning to B7, the OD450 was determined as 0.63 OD450.
In turn, B8 gave an OD450 of 0.91 OD450.
For the molecule B9, the OD450 came to 0.44 OD450.
Same read-out and setting: under B10 stands 0.6 OD450.

The target in another assay is Peptide 1: Biotin-…-[Tyr(PC)]-acid. In words: scFv ELISA.
The molecule B1 came in with an OD450 of 0.69 OD450.
Molecule B2 came in with an OD450 of 0.12 OD450.
The molecule B3 showed an OD450 of 0.69 OD450.
Same read-out and setting: under B4 stands 0.31 OD450.
As to B5, the OD450 turned out to be 0.5 OD450.
On the same count and under the same terms, to B6 belongs 0.52 OD450; to B7, 0.43 OD450.
The molecule B8 gave an OD450 of 0.43 OD450.
B9 returned an OD450 of 0.16 OD450.
B10 returned an OD450 of 0.37 OD450.

A further assay addresses T1, Peptide 4: …. Kind of assay: scFv ELISA. The method in brief: (§1)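 Bound scFv was read as OD450 after HRP–anti-V5 detection, TMB development and HCl stop. PPE with BSA was incubated 1 h at RT on BSA-blocked wells coated overnight at 4° C. with peptide, or on streptavidin wells loaded 1 h with biotinylated PC-peptides at 1 μg/mL.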
Turning to B1, the OD450 was found to be 0.05 OD450.
The same measure, in the same setting: to B2 belongs 0.05 OD450; to B3, 0.05 OD450.
As to B4, the OD450 turned out to be 0.05 OD450.
For B5, the OD450 was 0.04 OD450.
Same read-out and setting: to B6 belongs 0.04 OD450; to B7, 0.05 OD450; to B8, 0.05 OD450.
B9 came in with an OD450 of 0.05 OD450.
Take B10: the OD450 was found to be 0.05 OD450.

The target in the next assay is T2, Peptide 8: …. In words: scFv ELISA. The essentials: as §1
With B1, the OD450 amounted to 0.04 OD450.
In the case of B2, the OD450 came to 0.04 OD450.
With B3, the OD450 came to 0.04 OD450.
B4 came in with an OD450 of 0.05 OD450.
B5 yielded an OD450 of 0.04 OD450.
Same read-out and setting: to B6 belongs 0.04 OD450; to B7, 0.1 OD450; to B8, 0.05 OD450.
On the same count and under the same terms, to B9 belongs 0.04 OD450; to B10, 0.05 OD450.

Values taken from patent publication US20250320312A1 (OXITOPE PHARMA B V, published 2025).
